In US20230054274A1, “PEPTIDE-MHC COMPLEXES” (priority 2019, published 2023):

Target: HLA-E*01:03 (Homo sapiens, UniProt P13747)
Assay: Stability of native peptide-HLA-E complexes by loss of ILT2 binding over time (SPR)

Sequence of HLA-E*01:03 (P13747 with tags, fused parts or gaps): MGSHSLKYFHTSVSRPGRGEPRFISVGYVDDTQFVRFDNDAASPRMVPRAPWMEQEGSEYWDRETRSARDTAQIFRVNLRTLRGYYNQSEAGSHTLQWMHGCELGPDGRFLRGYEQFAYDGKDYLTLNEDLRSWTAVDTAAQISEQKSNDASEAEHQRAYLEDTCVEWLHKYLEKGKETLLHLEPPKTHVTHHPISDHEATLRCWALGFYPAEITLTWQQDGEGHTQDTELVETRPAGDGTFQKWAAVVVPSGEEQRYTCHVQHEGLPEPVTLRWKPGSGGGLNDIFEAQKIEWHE
Sequence of HLA-E*01:03 (P61769 with tags, fused parts or gaps partner): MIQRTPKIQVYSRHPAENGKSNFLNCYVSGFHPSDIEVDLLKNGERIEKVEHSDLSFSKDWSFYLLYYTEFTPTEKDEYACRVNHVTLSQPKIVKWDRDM

| Sequence | T 1/2 (h) (HLA-E*01:03) ([…], half-life by ILT2 binding) | T 1/2 (h) (HLA-E*01:03) (native unmodified peptide in complex with HLA-E*01:03, half-life by ILT2 binding) |
| --- | --- | --- |
| ILPSDAPVL [MTB peptide known to be presented by HLA-E] | 0.70 |  |
| RMYSPVSIL [HIV (Gag 275) peptide known to be presented by HLA-E] | 0.27 |  |
| VMAPRTLIL | 3.20 |  |
| VMAPRTLVL |  | 3.00 |
| VMATRRNVL [MTB peptide known to be presented by HLA-E] | 0.57 |  |
